Source: publication PMC4690014, “Functional Analysis of Cotton Leaf Curl Kokhran Virus/Cotton Leaf Curl Multan Betasatellite RNA Silencing Suppressors”

Experiments:
TrAP (Trx-His fusion) = TrAP (Trx-His fusion) (Cotton leaf curl Kokhran virus, UniProt O72711 1-134); test: EMSA; details: protein: recombinant; tags: N-terminal Trx-His (pET32a); label: 5'-32P
V2 (Trx-His fusion) = V2 (Trx-His fusion) (Cotton leaf curl Kokhran virus, UniProt Q6JIB8 1-118); test: EMSA; details: protein: recombinant; tags: N-terminal Trx-His (pET32a); label: 5'-32P

Binder	binding result (TrAP (Trx-His fusion))	binding result (V2 (Trx-His fusion))
AGAGUGCCAUGCCCGAAGGUUAUU (ssRNA) [24 nt ssRNA]	binds	
AGAGUGCCAUGCCCGAAGGUU (ssRNA) [21 nt ssRNA]	binds	
69 nt ssDNA (SalI-XbaI-HA-Tag oligo, by length) (ssDNA) DNA: GCGTCGACGTCTTGCTCTAGAGATGTATCCATATGATGTTCCGGATTACGCGGAACGAGCTATACAAGG	binds	binds
AGAGTGCCATGCCCGAAGGTT (ssDNA) [21 nt ssDNA]	binds	
